Assay results as given in patent US20250145711A1 (Janssen / Centocor, published 2025).
Numbering of substitutions follows the chain as printed. Names and notes keep the numbering of the source.

B1: GCDB131 (bispecific antibody, human IgG1, kappa, L234A L235A)
heavy: QVQLLQSAAEVKKPGESLKISCKGSGYTFTRSTMHWVRQTPGKGLEWMGYINPSSAYTNYNQKFKDQVTISADKSISTAYLQWSSLKASDTAMYYCARPQVHYDYNGFPYWGQGTLVTVSSASTKGPSVFPLAPSSKSTSGGTAALGCLVKDYFPEPVTVSWNSGALTSGVHTFPAVLQSSGLYSLSSVVTVPSSSLGTQTYICNVNHKPSNTKVDKKVEPKSCDKTHTCPPCPAPEAAGGPSVFLFPPKPKDTLMISRTPEVTCVVVSVSHEDPEVKFNWYVDGVEVHNAKTKPREEQYNSTYRVVSVLTVLHQDWLNGKEYKCKVSNKALPAPIEKTISKAKGQPREPQVYVYPPSREEMTKNQVSLTCLVKGFYPSDIAVEWESNGQPENNYKTTPPVLDSDGSFALVSKLTVDKSRWQQGNVFSCSVMHEALHNHYTQKSLSLSPG
light: EIVLTQSPSAMSASVGDRVTITCSASSSVSYMNWYQQKPGKVPKRLIYDSSKLASGVPSRFSGSGSGTEYTLTISSLQPEDFATYYCQQWSRNPPTFGQGTMLEIKRTVAAPSVFIFPPSDEQLKSGTASVVCLLNNFYPREAKVQWKVDNALQSGNSQESVTEQDSKDSTYSLSSTLTLSKADYEKHKVYACEVTHQGLSSPVTKSFNRGEC
chain: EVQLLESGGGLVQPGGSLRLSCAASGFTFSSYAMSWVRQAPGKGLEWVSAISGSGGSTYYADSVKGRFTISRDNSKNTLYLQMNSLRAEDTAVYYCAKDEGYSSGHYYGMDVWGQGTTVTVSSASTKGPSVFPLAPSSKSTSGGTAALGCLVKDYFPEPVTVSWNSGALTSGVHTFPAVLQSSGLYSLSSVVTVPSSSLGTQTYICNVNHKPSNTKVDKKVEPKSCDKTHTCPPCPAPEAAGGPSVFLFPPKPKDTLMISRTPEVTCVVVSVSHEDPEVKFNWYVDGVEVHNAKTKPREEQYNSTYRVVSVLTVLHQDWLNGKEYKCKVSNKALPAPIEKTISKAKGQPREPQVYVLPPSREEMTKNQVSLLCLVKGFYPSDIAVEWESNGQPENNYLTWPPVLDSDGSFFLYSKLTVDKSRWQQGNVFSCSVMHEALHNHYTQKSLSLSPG
B2: BC3B51 (bispecific antibody, human IgG1, kappa, L234A L235A)
chain: QVQLVQSGAEVKKPGSSVKVSCKASGYTFTRSTMHWVKQAPGQGLEWIGYINPSSAYTNYNQKFQGRVTLTADKSTSTAYMELSSLRSEDTAVYYCASPQVHYDYQGFPYWGQGTLVTVSSGGSEGKSSGSGSESKSTGGSEIVLTQSPATLSASPGERVTLSCSASSSVSYMNWYQQKPGQAPRRWIYDSSKLASGVPARFSGSGSGRDYTLTISSLEPEDFAVYYCQQWSRNPPTFGGGTKVEIKEPKSSDKTHTCPPCPAPEAAGGPSVFLFPPKPKDTLMISRTPEVTCVVVSVSHEDPEVKFNWYVDGVEVHNAKTKPREEQYNSTYRVVSVLTVLHQDWLNGKEYKCKVSNKALPAPIEKTISKAKGQPREPQVYVYPPSREEMTKNQVSLTCLVKGFYPSDIAVEWESNGQPENNYKTTPPVLDSDGSFALVSKLTVDKSRWQQGNVFSCSVMHEALHNHYTQKSLSLSPG
heavy: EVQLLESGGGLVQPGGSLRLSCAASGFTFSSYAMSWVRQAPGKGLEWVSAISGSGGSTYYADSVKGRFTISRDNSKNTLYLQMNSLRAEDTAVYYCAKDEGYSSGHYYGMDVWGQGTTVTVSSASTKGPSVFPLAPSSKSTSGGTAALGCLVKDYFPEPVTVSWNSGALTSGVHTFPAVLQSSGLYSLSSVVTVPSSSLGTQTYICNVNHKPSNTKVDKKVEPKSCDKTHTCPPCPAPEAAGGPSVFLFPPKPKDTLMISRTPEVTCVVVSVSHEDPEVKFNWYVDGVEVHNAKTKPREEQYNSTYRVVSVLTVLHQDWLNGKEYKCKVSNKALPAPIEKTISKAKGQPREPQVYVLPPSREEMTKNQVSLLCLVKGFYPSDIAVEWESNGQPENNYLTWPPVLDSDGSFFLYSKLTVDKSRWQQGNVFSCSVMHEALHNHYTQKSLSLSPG
light: EIVLTQSPGTLSLSPGERATLSCRASQSISSSFLTWYQQKPGQAPRLLIYGASSRATGIPDRFSGGGSGTDFTLTISRLEPEDFAVYYCQHYGSSPMYTFGQGTKLEIKRTVAAPSVFIFPPSDEQLKSGTASVVCLLNNFYPREAKVQWKVDNALQSGNSQESVTEQDSKDSTYSLSSTLTLSKADYEKHKVYACEVTHQGLSSPVTKSFNRGEC
notes: IgG1 BCMAxCD3; HC1: CD3B2030-N106Q HL scFv-Fc; also called BC3B51.001; B2030 HL NtoQ
B3: BC3B104 (bispecific antibody, human IgG1, kappa, L234A L235A)
chain: B2 chain with Q106G
heavy: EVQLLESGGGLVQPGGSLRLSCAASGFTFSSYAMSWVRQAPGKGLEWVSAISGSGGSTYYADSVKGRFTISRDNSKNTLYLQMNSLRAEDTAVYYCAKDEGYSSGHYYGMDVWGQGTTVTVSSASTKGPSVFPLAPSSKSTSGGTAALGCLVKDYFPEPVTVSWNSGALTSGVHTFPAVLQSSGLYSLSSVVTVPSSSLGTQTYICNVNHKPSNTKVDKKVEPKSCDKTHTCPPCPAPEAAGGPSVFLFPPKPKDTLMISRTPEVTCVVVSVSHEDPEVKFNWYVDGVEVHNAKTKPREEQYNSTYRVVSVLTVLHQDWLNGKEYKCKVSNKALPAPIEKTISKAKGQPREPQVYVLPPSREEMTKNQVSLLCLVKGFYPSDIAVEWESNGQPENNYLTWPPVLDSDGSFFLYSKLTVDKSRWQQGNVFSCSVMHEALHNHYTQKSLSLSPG
light: B2 light
notes: IgG1 BCMAxCD3; HC1: CD3B2030-N106G HL scFv-Fc; also called BC3B104.001; B2030 HL NtoG
B4: BC3B103 (bispecific antibody, human IgG1, kappa, L234A L235A)
chain: B2 chain with Q106A
heavy: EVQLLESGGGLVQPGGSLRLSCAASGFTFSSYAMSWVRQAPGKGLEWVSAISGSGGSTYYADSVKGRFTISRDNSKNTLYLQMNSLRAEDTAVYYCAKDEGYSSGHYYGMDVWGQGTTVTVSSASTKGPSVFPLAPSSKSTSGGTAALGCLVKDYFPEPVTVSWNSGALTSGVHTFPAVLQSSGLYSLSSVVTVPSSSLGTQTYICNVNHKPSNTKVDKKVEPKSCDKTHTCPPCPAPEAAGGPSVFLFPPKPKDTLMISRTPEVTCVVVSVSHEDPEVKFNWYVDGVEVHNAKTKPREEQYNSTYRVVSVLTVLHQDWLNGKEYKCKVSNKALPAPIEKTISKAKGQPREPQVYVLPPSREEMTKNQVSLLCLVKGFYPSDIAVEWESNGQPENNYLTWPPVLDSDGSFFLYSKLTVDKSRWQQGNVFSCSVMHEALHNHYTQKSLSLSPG
light: B2 light
notes: IgG1 BCMAxCD3; HC1: CD3B2030-N106A HL scFv-Fc; also called BC3B103.001; B2030 HL NtoA
B5: BC3B129 (bispecific antibody, human IgG1, kappa, L234A L235A)
chain: EIVLTQSPATLSASPGERVTLSCSASSSVSYMNWYQQKPGQAPRRWIYDSSKLASGVPARFSGSGSGRDYTLTISSLEPEDFAVYYCQQWSRNPPTFGGGTKVEIKGGSEGKSSGSGSESKSTGGSQVQLVQSGAEVKKPGSSVKVSCKASGYTFTRSTMHWVRQAPGQGLEWMGYINPSSAYTNYAQKFQGRVTLTADKSTSTAYMELSSLRSEDTAVYYCASPQVHYDYSGFPYWGQGTLVTVSSEPKSSDKTHTCPPCPAPEAAGGPSVFLFPPKPKDTLMISRTPEVTCVVVSVSHEDPEVKFNWYVDGVEVHNAKTKPREEQYNSTYRVVSVLTVLHQDWLNGKEYKCKVSNKALPAPIEKTISKAKGQPREPQVYVYPPSREEMTKNQVSLTCLVKGFYPSDIAVEWESNGQPENNYKTTPPVLDSDGSFALVSKLTVDKSRWQQGNVFSCSVMHEALHNHYTQKSLSLSPG
heavy: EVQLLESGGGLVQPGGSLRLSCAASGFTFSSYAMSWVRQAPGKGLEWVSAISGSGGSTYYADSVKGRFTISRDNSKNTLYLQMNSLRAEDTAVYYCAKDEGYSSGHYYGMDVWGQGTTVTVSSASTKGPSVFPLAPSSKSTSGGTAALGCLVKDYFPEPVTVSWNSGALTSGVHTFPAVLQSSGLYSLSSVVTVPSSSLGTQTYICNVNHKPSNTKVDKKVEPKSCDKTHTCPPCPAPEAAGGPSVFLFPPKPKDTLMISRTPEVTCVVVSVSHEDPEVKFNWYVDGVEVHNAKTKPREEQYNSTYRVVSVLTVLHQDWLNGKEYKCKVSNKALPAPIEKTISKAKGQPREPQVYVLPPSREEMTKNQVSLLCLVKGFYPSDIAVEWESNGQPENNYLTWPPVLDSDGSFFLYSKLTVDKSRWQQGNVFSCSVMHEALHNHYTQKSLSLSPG
light: B2 light
notes: IgG1 BCMAxCD3; HC1: CD3B2089-N106S LH scFv-Fc; also called BC3B129.001; B2089 LH NtoS

The binders below were run against T1, Human CD3 epsilon (CD3ε), on primary human pan T cells (human, UniProt P07766 23-207) (assay: cell-based or functional assay).
T1 sequence (P07766 23-207 limits assumed): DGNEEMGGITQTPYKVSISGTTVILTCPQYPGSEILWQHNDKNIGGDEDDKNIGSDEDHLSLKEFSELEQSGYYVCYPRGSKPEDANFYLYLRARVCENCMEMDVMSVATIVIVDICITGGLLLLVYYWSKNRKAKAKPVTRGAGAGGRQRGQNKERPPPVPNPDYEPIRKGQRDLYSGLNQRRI

Row | Binder | EC50, Cytotoxicity
1 | B1 | 33.4 pM
2 | B2 | 27.8 pM
3 | B3 | 237 pM
4 | B4 | 92.1 pM

Biological target: T1, Human CD3 epsilon (CD3ε), on primary …
Assay: cell-based or functional assay
Remark: another data set of the same source

Row | Binder | H929 Killing EC50
5 | B2 | 12.9 pM
6 | B3 | 237 pM
7 | B4 | 92.1 pM
8 | B5 | 10000 pM

These binders were tested against T1, Human CD3 epsilon (CD3ε), on primary … (assay: flow cytometry on human T cells, anti-human IgG Fc A647 detection).
Description: The bsAbs were assayed for their abilities bind T cells and to induce T-cell mediated cytotoxicity against H929 cells (ATCC@CRL-9068™). […] Stain buffer with no antibody was added to bottom 4 wells and assign as background control (secondary antibody alone). Parental Cris7b, CD3B695 (bivalent mAb controls) and CD3B375 (bsAb which was monovalent for Cris-7b) were added also with full dose-response curves.
Frozen T-cells were thawed in a 37° C. water bath and transferred gently into conical tube containing warm 5 mL media (RPMI+10% FBS)/1 vial of 1×10⁶ cells. Cells were mixed and centrifuged for 5 minutes at 400×g followed by resuspension in flow staining buffer, and counted and viability checked. Cells were then plated in 50 uL/50,000 cells/well into assay plates. Assay positive control mAb was added in the first column in quadruplicates at 2× at 20 nM in the bottom 4 wells. Stain buffer with no mAb was added to the top 4 wells and assigned as background controls (secondary antibody alone). Serially diluted antibody samples were added at 50 uL/well using Intergra Viaflo according to the attached plate maps and incubated for 1 hr at 37° C. After one hour incubation, 150 uL staining buffer were added to all wells, and cells were spun at 500×g for 5 minutes to pellet cells. Cells were then washed prior to addition of Alexa Fluor 647 (A647) conjugated anti human IgG Fc specific secondary detection antibody at 2 ug/mL in staining buffer. Secondary detection antibody was added at 50 uL/well to the washed cells. Plates were covered with foil and incubated for 30 minutes on ice or in the fridge. 150 uL staining buffer were added to all wells, and cells were spun at 500×g for 5 min to pellet cells. Cells were resuspended in 20 uL running buffer containing 1:1000 dilution of SYTOX™ green dead cell stain and run plates on iQue® Screener flow cytometer (Essen BioScience, Inc.). Briefly, cells were gated on FCS vs. SCS dot plot to eliminate debris. Singlets were gated on SCS-A vs SCS-H dot plot and from singlet population, live cells gated choosing BL1 channel for low/negative with SYTOX™ green viability stain (Thermo Fisher).

Row | EC50 | Binder
9 | 1.9 nM | B2
10 | 64.2 nM | B3
11 | 4.6 nM | B4
12 | 300 nM | B5
